Assay results taken from publication PMC3616104, “Structural and Phylogenetic Studies with MjTX-I Reveal a Multi-Oligomeric Toxin – a Novel Feature in Lys49-PLA2s Protein Class” (PLoS ONE, 2013).

Assays:
[1] = target: the molecule itself; assay: dynamic light scattering; MjTX-I 1.5 mg/ml, 18 °C, 20 mM Tris-HCl pH 8.0
[2] = target: the molecule itself; assay: dynamic light scattering; MjTX-I 1.5 mg/ml, 18 °C, 0.5, 2.0 and 10.0 mM Tris-HCl pH 8.0, two hours after addition of the buffer

B1: MjTX-I (myotoxin-I) from Bothrops moojeni venom (natural protein)
chain: SLVELGKMILQETGKNPVTSYGAYGCNCGVLGRGKPKDATDRCCYVHKCCYKKLTDCNPKKDRYSYSWKDKTIVCGENNSCLKELCECDKAVAICLRENLDTYNKKYKNNYLKPFCKKADPC
notes: Myotoxin-I (MjTX-I), Lys49-phospholipase A2 homologue from Bothrops moojeni venom, NCBI GI 17368325; about 14 kDa per monomer; also called Lys49-PLA2
- stoichiometry N [1]: 4
- stoichiometry N [2]: 2
